Data reported in the RNAGym collection of RNA variant scans (doi:10.1073/pnas.2313332121).
Variants at the floor of the assay were thinned out.

B1: TPR 5TU (parent)
chain: GGAUCUUCUCGAUCUAACAAAAAAGACAAAUCUGCCACAAAGCUUGAGAGCAUCUUCGGAUGCAGAGGCGGCAGCCUUCGGUGGCGCGAUAGCGCCAACGUUCUCAACUAUGACACGCAAAACGCGUGCUCCGUUGAAUGGAGUUUAUCAUG

Variants of: B1
Assay: polymerase ribozyme fitness, log enrichment relative to wild type (log ratio); higher = more active; in vitro selection for triplet polymerase activity
How it was run: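 PCR was used to build mutant libraries for each subunit of a heterodimeric triplet polymerase ribozyme, which were then transcribed. A single in vitro selection round, in triplicate, used a frozen incubation at −7 °C and recovered extended constructs by gel excision, streptavidin beads and RT-PCR. Fitness is the logarithm of genotype enrichment relative to wild-type enrichment, averaged over replicates with inverse-variance weights. The logarithm is base 2, and after Illumina sequencing only genotypes with ≥10 input reads and ≥1 read per output were kept.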

Row | Variant | polymerase ribozyme fitness (log ratio)
1 | GGAUCUUCUCGAUCUAACAAAAAAGACAAAUCUGCCACAAAUCUUGAGAGCAUCUACGGAUGCAGAGGCGGCAGGCUUCGGUGGCGCGAUUGCGCCAACGUUCUCAACUAUGACACGCAAAACGCAUGCUCCGUUGAAUGGAGAUUAUCAUG | ≤ -4.2
2 | GGAUCUUCUCGAUCUAACAAAAAAGACAAAUCUGCCACAAAUCAUGAGAGCAUAUUCGGAUGCAGAGGCGGCAGCCUUCGGUGGCGCUAUAGCGCCAACGUUCUCAACUAUGACACGCAAAACGCGUGCUCCGUUGAAUGGAGUUUAUCAUG | ≤ -4.2
3 | GGAUCUUCUCGAUCUAACAAAAAAGACAAAUCUGCCACAAAUCUUGAGAGCAUCUUCGGAUGCAGAGGCGGCAGCCUUCGGUGGCGCGAUAGCGCCAACGUUCUCAAUUAUGACACGCAAAACGUGUGCUCCGUUGAUUGGAGUUUAACAUG | -4.13
4 | GGAUCUUCUCGAUCUAACAAAAAAGACAAAUCUGCCACAAAUCUUGAGAGCAUCUUCGGAUGCAGAGGCGGCAGCCUUCGGUGGCGCGAUGGCGCCAACGUUCUCAACUAUGACACGCAAAACGCGUUCUCCAUUGAAUGGAGUUUAUCAUG | ≤ -4.2
5 | GGAUCUUCUCGAUCUAACAAAAAAGACAAAUCUGCCACAAAUCGUGAGAGCAUCUUCGGGUGCAGAGGCGACAGCCUUCGGUGGCACGAUAGCGCCAACGUUCUCUACUAUGACACGCAAAACGCGUGCUCCGGCGAAUGGAGUUUAUCAUG | ≤ -4.2
6 | GGAUCUUCUCGAUCUAACAAAAAAGACAAAUCUGCCACAAAUCUUGAGAGCAUCUUCGGAUGCAGAGGCCGCAGCCUUCGGUCGCGCGAUAGCGCCAACGUUCUCAACUAUGACACGCAAAACGCGUGCUCCGUUGAAUGCAGUUUAUCAUG | ≤ -4.2
7 | GGAUCUUCUCGAUCUAACAAAAAAGACAAAUCUGCCACAAACCUUGAGAGCAUCUGCGGAUGCAGAGGCGGCAGCCUUCGGUGGCGCGAUAGCGCCAACGUUCUCAACUAUGAUACGCAAAACGCGAGCUCCGUUGACUGGAGUUUAUCAUG | ≤ -4.2
8 | GGAUCUUCUCGAUCUAACAAAAAAGACAAAUCUGCCACAAACCUUGAGAGCAUCUGCGGAUGCAGAGGCGGCAGCCUUCGGUGGCGCGAUAGCGCCAACGUUCUCAACUAUGACACGCAAAACGCGUGCUCCGUUGAAUGGAGAUUAUCAUG | ≤ -4.2
9 | GGAUCUUCUCGAUCUAACAAAAAAGACAAAUCUGCCACAAAUCUUGAGAGCAUCUUCGUAUGCAGAGGCGGCAGCCUUCGGUGAUGCGAUAGCGCCAACGUUGUCAACUAUGACACGCGAAACGCGUGCUCCGUUGAAUGGAGUUUAUCAUG | ≤ -4.2
10 | GGAUCUUCUCGAUCUAACAAAAAAGACAAAUCUGCCACAAACCUUGAGAGCAUCUACGGAUGCAGAGGCGGCAGCCUUCGGUGUCGCGAUAGCGCCAACGUUCUCAACUAUGACACGCAACACGCGUGCUCCGUUGAAUGGAGUUUAUCAUG | ≤ -4.2
11 | GGAUCUUCUCGAUCUAACAAAAAAGACAAAUCUGCCACAAAUCUUGAGAGCAUCUUCGGAUGCAGAGGCGGCAGCCUUCGGUGGCGCGAUAGCGCCAUCGUGCUCAACUAUGACACGCAUAACGCGUGCUCGGUAGAAUGGAGUUUCUCAUG | ≤ -4.2
12 | GGAUCUUCUCGAUCUAACAAAAAAGACAAAUCUGCCACAAAGAUUGAGUGCAUCUUCGGAUGCAGAGGCGGCAACCUUCGGUGGCCCGAUAGAGCCAACGUUCUUAACUAUGACACGCAAAACGCGUGCUCCGUUGAAUGGAGAUUAUCAUG | ≤ -4.2
13 | GGAUCUUCUCGAUCUAACAAAAAAGACAAAUCUGCCACAAAUCUUGAGAGCAUCUUCGGAUGCAGAGGCGGCAGCCUUCGGUGUCGCGAUAGCGCCAACGUUCUCAACUAUGACACUGAAAACGCGUGCUCCGUUGAAUGGGGUUUAUCAUG | ≤ -4.2
14 | GGAUCUUCUCGAUCUAACAAAAAAGACAAAUCUGCCACAAAUCUUGGGAGCAUCUUCGGAUGCAGAGGCGGCAGCCUUCGGUGGCGCGAUAGCGCCAAGGUUCUCAACUAUGACAUGCAAAACGCGUGCUCCGUUGAAUGGAGUUUAUCAUG | ≤ -4.2
15 | GGAUCUUCUCGAUCUAACAAAAAAGACAAAUCUGCCACAAAUCUUGAGAGCAUCUUCGGGGGCAGAGGCGGCAGCCUUCGGUGGCGCGAUAGCGCGAAGGUUCUCAACUAUGACACGCAAAACGUGUGCUCCGUUGAAUGGAGUUUAUCCUG | ≤ -4.2
16 | GGAUCUUCUCGAUCUAACAAAAAAGACAAAUCUGCCACAAAGAUUGAGAGCCUCUUCGGAUGCAGAGGCGGCAGUCUUCGGUGGCGCGAGAGCGUGAACGUUCUCAACUAUGAGACGCAAAACGCGUGCUCCGUUGAAUGGAGGUUAUCAUG | ≤ -4.2
17 | GGAUCUUCUCGAUCUAACAAAAAAGACAAAUCUGCCACAAACCUUGAGAGCAUCAUCGGAUGCAGGGGCGGCAGCCUUCGGUGGCGCGAUAGCGCCAACGUUCUCAACUAUGACACGCAAAACGCGUGCUCCGUUGAAUGGAGAUUAUCAUG | ≤ -4.2
18 | GGAUCUUCUCGAUCUAACAAAAAAGACAAAUCUGCCACAAAUCUUGAGAGCAUCUUCGGAUGCAGAGGCGGCAGCGUUCAGUGGCGCGAUAGCGGCAACGUUCUCAACUAUGACACGCAAAACGCGUGCUCCGUUGAAUGGAGUUUAUCAUG | ≤ -4.2
19 | GGAUCUUCUCGAUCUAACAAAAAAGACAAAUCUGCCACAAAUCAUGAGAGCAUCUUCGGAUGCAGAGGCGGCAGCCUUCGGUGGAGCGAUAGCGCGAACGUUCUCAACUAUGACCCGCAAAACGCGUGAUCCGUUGAAUGGAGUUUAUCAUG | ≤ -4.2

Row | Variant | polymerase ribozyme fitness (log ratio)
20 | GGAUCUUCUCGAUCUAACAAAAAAGACAAAUCUGCCACAAAUCUUGAGAGCAUCUACGGAUGCAGAGGCGGCAGCCUUCGGUGGCGCGAUAGCGCCAACGUUCUCAACUAUGACACGCAUAACGCGUGCUCCGUUGAAUGGCGUUUAUCAUG | ≤ -4.2
21 | GGAUCUUCUCGAUCUAACAAAAAAGACAAAUCUGCCACAAAUCUUGAGAGCAUCUUCGGAUGCAGAGGCGGCAGCCUUCGGUGGCGCGAUAGCGCCAACGUUCUCCACUAUGACACGCAAAACGCGUGCUCCGUUGAAUGGAGUUUAUCAUG | -4.17
22 | GGAUCUUCUCGAUCUAACAAAAAAGACAAAUCUGCCACAAAUCUUGAGAGCAUCUUCGGAUGCAGAGGCGGCGGCCUGCGGUGGCGCGAUAGAGCCAACGUUCUCAACUAUGACACGCAAAACGCGUGCUCCGUUGAAUGGAGUUAAUCAUG | ≤ -4.2
23 | GGAUCUUCUCGAUCUAACAAAAAAGACAAAUCUGCCACAAAUCUUGAGAGCAUCUUCGGAUGCAAAGGCGGCAGCCUUCGGUGGCGCGAUAGCGUCAACGUUCUCAACUAUGACACGCAAAACGCGUGCUCCGUUGAAGGGAGUUUAUCAUG | ≤ -4.2
24 | GGAUCUUCUCGAUCUAACAAAAAAGACAAAUCUGCCACAAACCUUGAGAGCAUCUUCGGAUGCAGAGGCGGCAGCCUUCGGUGGCGCGACAGCGCCAACGUUCUCAACAAUGACACGCAAAACGCGUGCUCCGUUGAAUGGAGUUUAUCAUG | ≤ -4.2
25 | GGAUCUUCUCGAUCUAACAAAAAAGACAAAUCUGCCACAAAUCUUGAGAGCAUCUUCGGAUGCAGAGGCGUCAGCCUUCGGUGGCGCUAUACCGCCCACGUUCUCAACUAUGACACGCAAAGCGCGUGCUCCGCUGAAUGGAGUUUAUCAUG | ≤ -4.2
26 | GGAUCUUCUCGAUCUAACAAAAAAGACAAAUCUGCCACAAAUCUUGAGAGCACCUUCGGAUGCAGAGGCGGCAGCCUUCGGUGGCGCGAUAGCGGCAACGUUCUCAACUAUGACACGCAAAACGCGUGCUCCGUUGAAUGGAGUUUAUCAUG | ≤ -4.2
27 | GGAUCUUCUCGAUCUAACAAAAAAGACAAAUCUGCCACAAAUCUCGAGAGCAUCUUCGGAUGCAGAGGCGGUAGCCUUCGGUGGGGCGAUAGCGCCAGCGUUCUCCACUAUGACACUCAAAACGCGUGCUCCGUUGAAUGGAGUUUAUCAUG | ≤ -4.2
28 | GGAUCUUCUCGAUCUAACAAAAAAGACAAAUCUGCCACAAAGAUUGCGAGCAACUUCGGAUGCAGAGGCGGCAGCCUUCGGUGGCGCGAUGGCGCCAACGUUCUCAACUAUGACACGCAAAACGCGUGCUCCGUUGAAUGGAGUUUAUCAUG | ≤ -4.2
29 | GGAUCUUCUCGAUCUAACAAAAAAGACAAAUCUGCCACAAACCUUGAGAGCAUCUUCGGAUGCAGAGGCGGCAGCCUUCGGGGGCGCGAUAGCGCCAACGUUCACAACUAUGACAUGCAAAACGCGUGCUCCGUUGGAUGGAGUUUAUCAUA | ≤ -4.2
30 | GGAUCUUCUCGAUCUAACAAAAAAGACAAAUCUGCCACAAACCUUGAGAGCAUCAUCGGAUGCAGAGGCCGCAGCCUUCGGUGGCGCGAUAGCGCUAACGUUCUCAACUAUGACACGCAAAACGCGUGCUCCGUUGAAUGGAGUUUAUCAUG | ≤ -4.2
31 | GGAUCUUCUCGAUCUAACAAAAAAGACAAAUCUGCCACAAAUCUUGAGAGCAUCUACAGAUGCAGAGGCGGCAGCUUUCGGUGGCGCGAUAGCGGCAGCGUUCUCAACUAUGACACGCAAAACGCGUGCUCCGUUGAAUGGAGUUUAUCAUG | ≤ -4.2
32 | GGAUCUUCUCGAUCUAACAAAAAAGACAAAUCUGCCACAAAUCUUGCGAGCAUCUUCGGAUGCAGAGGCGGCAGCCUUCGGUGGCGAGAUAGCGCCAACGUUCGCAGCUAUGACACGCAAAACGCGUGCUCCGUUGAAUGGAGUUUAUCAUG | ≤ -4.2
33 | GGAUCUUCUCGAUCUAACAAAAAAGACAAAUCUGCCACAAAUCUGGAGAGCACCUUCGGAUGCAGAGGCGGCAGCCUUCGGUGGCGCUAUAGCGCCAACGUUCUCAACUAUGACACGCAAAACGCGUGCUCCGUUGCAUGGAGUUUAUCAUG | ≤ -4.2
34 | GGAUCUUCUCGAUCUAACAAAAAAGACAAAUCUGCCACAAAUCUAGAGAGCAUCUACGGAUGCAGAGGCGGCAGCCUUCGGUAGCGCGAUAGCGCCAACGUUCUCAACUAUGACACGCAAUACGCGUGCUCCGUUGAAUGGAGUUUAUCAUG | ≤ -4.2
35 | GGAUCUUCUCGAUCUAACAAAAAAGACAAAUCUGCCACAAAUCUUGAGAGCAUCGUCGAAUGCAGAGGCGGCAGCCUUCGGUGGCGCUAUAGCGCGAGCGUUCUCAACUAUGACACGGAAAACGCGUGCUCCGUUGAAUGGAGUUUAUCAUG | ≤ -4.2
36 | GGAUCUUCUCGAUCUAACAAAAAAGACAAAUCUGCCACAAAUCUUGAGAGCAUCUUCGGAUGCAGAGGCGGCAGCCUUCGGUGUCGCGAUAGCGCCAACGUUCUCAACUAUGACACGCAAAACGCGUGCUCCGCUGAAGGGAGUUUAUCAUG | ≤ -4.2
37 | GGAUCUUCUCGAUCUAACAAAAAAGACAAAUCUGCCACAAAUCUAGAGAGCAUCUUCGGAUGCAGAGGCGGCAGCCUUCGGUGGCGCGAUAGCGUCAACGUUCUCAACUAUGACACGCAAAACGCGUGCUCCGUUGAAUGGAGUUUAUAAUG | ≤ -4.2
38 | GGAUCUUCUCGAUCUAACAAAAAAGACAAAUCUGCCACAAACCUUGAGAGCAUCAUCGGAUGCAGAGGCGGCAGCCUUCGGUGGUGCGAUAGCGCCAACGUUCUCAACUAUGACACGCAAAACGCGUGCUCCGUUGAAUGGAGUUUAUCAUG | ≤ -4.2
